US6340783B1, “Rodent models of human amyloidoses” (University of Washington, priority 1992, dated 2002)
Entries after “also recorded” stand apart in the source; their conditions may differ. Where two headings read alike, the source gives them in different places.

How the values were obtained:
[1] = target: T1, BAP (1-28) (Homo sapiens, UniProt P05067); assay: Solid phase binding assay, Scatchard analysis of 125I-BAP (1-28) binding to high Mr HSPG
T1 construct: residues 1-28 of BAP or residues 597-624 of BAPP; purchased Bachem Inc., Torrance, Calif; host or cells: synthetic peptide
Procedure: Nitrocellulose coated wells were incubated overnight at room temperature with 100 μl of TBS containing 1.5 μg (with 0.28 μg binding to the well) of high Mr HSPG. Wells were blocked overnight at room temperature with 200 μl of 5% non-fat dried milk. After blocking, wells were rinsed 3 times with 200 μl of TBS. Various quantities of ^125I-BAP (1-28) (specific activity=6,683 cpm/pm) diluted in 100 μl of TBS/0.05% Tween 20 was added in triplicate to wells and incubated for 2.5 hours at room temperature on an orbital shaker. At the end of the incubation period, free ^125I-BAP was removed from each well and transferred to scintillation vials for counting. In addition, each well was washed 6 times with 200 μl of TBS/0.05% Tween 20, and the wash was added to each of the same scintillation vials described above, to determine the total “free” 125I-BAP fraction for each well. Bound ^125-BAP was extracted from wells by incubation with 100 μl of 1N NaOH at room temperature for 1 hour, and quantitated by liquid scintillation counting. Recovery of ^125I-BAP as free and bound radioactivity exceeded 90%. […] Bars indicate standard error of the mean.
^125I-HSPG (specific activity=1,104 cpm/ug) isolated from EC culture media was used to determine the amount of HSPG which bound to microtiter wells. Polyvinyl microtiter wells were coated with 100 μl of nitrocellulose solution (Schleicher and Schuell) (10 cm^2 of BA85 nitrocellulose in 10 ml of methanol) and allowed to dry at room temperature for 4 hours. Wells were coated overnight at room temperature with unlabeled HSPG to give 0.12 μg or 0.28 μg of bound-HSPG per well, and blocked overnight at room temperature with 200 μl of 5% non-fat dried milk (Carnation Co., Los Angeles, Calif.). Various quantities of 125I-BAP (residues 1-28) (specific activity=6,683 cpm/pm) diluted in 100 μl of TBS/0.05% Tween 20 were added in triplicate to wells and incubated for 2.5 hours at room temperature on an orbital shaker. At the end of the incubation. period, free ^125I-BAP was then removed with 6 washes of TBS/0.05% Tween 20. Bound ^125I-BAP was extracted from wells by incubation with 100 μl of 1N NaOH at room temperature for 1 hour, and “bound” versus “free” radioactivity was quantitated by liquid scintillation counting. Recovery of ^125I-BAP as free and bound radioactivity exceeded 90%. A set of controls using 5% BSA-coated wells was also included in all experiments.
To quantitate the interaction between the high Mr HSPG and BAP (1-28), 0.12 μg or 0.28 μg of the HSPG (isolated from the culture media of ECs; see FIG. 9B, lane 1) were immobilized on nitrocellulose coated wells and incubated with increasing concentrations of ^125I-BAP.

[2] = target: T2, BAP (residues 1-28) (Homo sapiens, UniProt P05067); assay: Affinity column chromatography of labeled proteoglycans on BAP (1-28) Affi-gel 10 column; type: binding
T2 construct: residues 1-28 of BAP or residues 597-624 of BAPP; purchased Bachem Inc., Torrance, Calif; host or cells: synthetic peptide
Procedure: Approximately 500,000 dpm of ^35S-sulfate labeled PGs isolated from the culture media of ECs were applied to Affi-gel 10 affinity columns containing approximately 0.45 mg of 1) residues 1-28 of BAP, 2) residues 410-429, a region of BAPP present in the extracellular domain, or 3) bovine serum albumin. The labeled PGs were left on the column for 1 hour, after which non-bound radiolabelled PGs were eluted with 25 ml (50 0.5 ml fractions) of TBS+0.1% TX-100 and collected on a fraction collector. Bound PGs were then eluted from the column with 15 mls of 4M MgCl2 in TBS+0.1% TX-100.
0.5 mg or 1.0 mg of ligands consisting of 1) BAP (1-28) (Bachem Inc., Torrance, Calif.), 2) a peptide corresponding to residues 410-429 of the BAPP (gift of Dr. Dennis Selkoe, Boston, U.S.A.) or 3) bovine serum albumin (BSA fraction V, Boehringer, Mannheim Biochemical) were dissolved initially in 400 μl of double distilled water to which was added an equal volume of 0.2 M HEPES buffer (pH 7.5) containing 160 mM calcium chloride. The ligand solutions were added to 0.8-1.0 ml of Affi-gel 10 (Biorad, Richmond, Calif.) and coupling was allowed to proceed for 4 hours at 4° C., after which 1/10 volume of IM ethanolamine (pH 8.0) was added and incubation continued for an additional 1-2 hours to block remaining unreacted ester groups. Gel coupled ligand was then transferred to Biorad Econo-columns and washed with TBS in 0.1% Triton-X 100. To assess the amount of bound ligand, soluble (nonbound) protein remaining in the wash buffer was assayed. The affinity columns coupled approximately 90% of ligand initially applied (i.e. 0.45 mg or 0.90 mg).
^35S-sulfate labeled PGs isolated from the culture media (360,000 dpm) of ECs and SMCs were applied to Affi-gel 10 columns containing 1) BAP (residues 1-28), 2) BAPP (residues 410-429) or 3) Bovine serum albumin. The labeled PGs were allowed to interact with the affinity gel for 1 hour (preliminary experiments indicated maximum binding efficiency at 1 hour) and non-bound radiolabelled PGs were eluted with 25 ml of TBS+0.1% Triton X-100 (TBS-TX 100). Bound PGs were eluted with either a single-step gradient using 15 mls of 4M MgCl2 in TBS-TX 100 or a linear gradient of 0 to 4M MgCl2 in TBS-TX 100. In some experiments, columns were further eluted with 15 ml of 8M urea in 50 mM Tris-HCl (pH 7.5), with 0.5% Triton X-100 and 3M NaCl. The radioactivity per fraction was determined by scintillation counting. Most experiments were repeated a minimum of three times. Recoveries of applied radioactivity from the affinity columns ranged from 80-95%.

T2 sequence (P05067 672-699 limits assumed): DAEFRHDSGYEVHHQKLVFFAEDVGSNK

## high Mr HSPG: ˜600-800 kDa heparan sulfate proteoglycan isolated from culture media of bovine aortic endothelial cells
[1]; 125I-BAP (1-28), Scatchard analysis, HSPG on nitrocellulose coated wells, read-out: Kd of the high affinity binding site
  Kd: 0.083 nM
[1]; 125I-BAP (1-28), Scatchard analysis, HSPG on nitrocellulose coated wells, read-out: Kd of the low affinity binding site
  Kd: 42 nM
[1]; assuming molecular weights of 700,000 and 2,800
  moles of BAP bound by 1 mole of HSPG: ~1.8 mol
[1]; binding to BAP/β/A4 (1-28), read-out: Kd of the low affinity binding site (unit inferred)
  Kd: 42 nM
[2]
  binding to BAP (1-28) affinity column: strong binding; also recorded: bound tightly
[2]; after 0 to 4M MgCl2 gradient and 4M MgCl2 wash
  eluent that removed most bound PGs from BAP column: 8M urea+3M NaCl
[2]; listed as 125I-HSPG
  binding to BAP (1-28) affinity column: high affinity
